Six molecules from patent US20220017635A1 (Kyowa Kirin, published 2022) can be followed below.

In experiment [1] the target is T1, human EGFR on cells (human, UniProt P00533 25-1210).
T1 construct: also called membrane-associated EGFR on OE21 cells
The experiment in a line: flow cytometry on OE21 cells; x axis Alexa Fluor 488-A [B]. On the technique in general: Flow cytometry measures light scatter and fluorescence of single cells or particles in a stream.

Experiment [2] addresses T2, human EGFR-FLAG-Fc (human, UniProt P00533 25-638).
T2 construct: also called human EGFR-Fc
Nature of the experiment: phage ELISA (scFv) on immobilized human EGFR-Fc. A general note: In an ELISA, binding on a coated surface is turned into a signal by an enzyme label.
Protocol: (§1) Specifically, it was carried out by adding a phage solution diluted with PBS-T containing 10% Block Ace (manufactured by Dainippon Pharmaceutical Co., Ltd.) to a 96-well immunoplate (NUNC, Inc.) on which an antigen protein was immobilized to allow a reaction to proceed at room temperature for 1 hour, followed by washing with PBS-T, and then, adding an anti-M13 antibody (manufactured by GE Healthcare, Inc.) labeled with horseradish peroxidase diluted with 1% BSA-PBS thereto to allow a reaction to proceed at room temperature for 1 hour.
(§2) The confirmation of a clone that specifically recognizes human and monkey EGFR-Fc was carried out by the ELISA method.

The target of a further experiment is T3, monkey EGFR-FLAG-Fc (monkey, UniProt P55245 25-638).
T3 construct: also called monkey EGFR-Fc; not shown: FLAG-Fc added to the C terminus
Nature of the experiment: phage ELISA (scFv) on immobilized monkey EGFR-Fc.

Experiment [3] has as its target T1, human EGFR on cells. The experiment in a line: flow cytometry on OE21 cells; x axis Alexa Fluor 488-A [C].
In experiment [4] the target is T1, human EGFR on cells. Nature of the experiment: flow cytometry on OE21 cells; x axis PE-A [D].
Experiment [5] has as its target T2, human EGFR-FLAG-Fc. The experiment in a line: phage ELISA on immobilized EGFR-Fc (Example 5).
For experiment [6], the target named is T1, human EGFR on cells. Nature of the experiment: flow cytometry on OE21 cells; x axis Alexa Fluor 488-A [A].
A further experiment concerns the target T4, mouse TfR on CHO cells (mouse, UniProt Q62351 1-763).
T4 construct: also called mouse TfR/CHO
Nature of the experiment: flow cytometry on mouse TfR/CHO cells.

Another experiment has as its target T5, monkey TfR on CHO cells (monkey).
T5 construct: also called monkey TfR/CHO cells
T5 chain: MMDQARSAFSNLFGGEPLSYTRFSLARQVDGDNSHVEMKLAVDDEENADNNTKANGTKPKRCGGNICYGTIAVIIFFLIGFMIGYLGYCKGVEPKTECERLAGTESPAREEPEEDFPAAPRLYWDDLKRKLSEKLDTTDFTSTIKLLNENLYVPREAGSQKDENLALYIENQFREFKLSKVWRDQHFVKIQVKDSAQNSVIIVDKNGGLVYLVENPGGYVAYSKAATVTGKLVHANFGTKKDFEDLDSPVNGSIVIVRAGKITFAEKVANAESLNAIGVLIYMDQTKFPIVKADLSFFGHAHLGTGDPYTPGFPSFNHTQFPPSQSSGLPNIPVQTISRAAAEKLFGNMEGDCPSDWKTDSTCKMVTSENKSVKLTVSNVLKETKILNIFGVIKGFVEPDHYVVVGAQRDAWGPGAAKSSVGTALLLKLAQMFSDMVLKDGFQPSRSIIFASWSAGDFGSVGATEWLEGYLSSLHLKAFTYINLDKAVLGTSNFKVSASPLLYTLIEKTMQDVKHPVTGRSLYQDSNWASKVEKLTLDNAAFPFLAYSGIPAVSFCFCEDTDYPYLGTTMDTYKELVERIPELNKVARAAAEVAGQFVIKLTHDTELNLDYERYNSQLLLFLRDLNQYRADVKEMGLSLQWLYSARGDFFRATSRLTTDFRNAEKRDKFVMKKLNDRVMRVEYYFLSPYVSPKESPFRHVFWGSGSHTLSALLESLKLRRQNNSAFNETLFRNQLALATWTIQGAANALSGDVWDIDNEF
Nature of the experiment: flow cytometry of monoclonal phage (scFv) on monkey TfR/CHO cells.

Another experiment addresses T6, chimeric TfR A02 (human/mouse chimera, UniProt P02786 89-760).
T6 construct: also called D352S-S355A-D356R-K358N
T6 chain: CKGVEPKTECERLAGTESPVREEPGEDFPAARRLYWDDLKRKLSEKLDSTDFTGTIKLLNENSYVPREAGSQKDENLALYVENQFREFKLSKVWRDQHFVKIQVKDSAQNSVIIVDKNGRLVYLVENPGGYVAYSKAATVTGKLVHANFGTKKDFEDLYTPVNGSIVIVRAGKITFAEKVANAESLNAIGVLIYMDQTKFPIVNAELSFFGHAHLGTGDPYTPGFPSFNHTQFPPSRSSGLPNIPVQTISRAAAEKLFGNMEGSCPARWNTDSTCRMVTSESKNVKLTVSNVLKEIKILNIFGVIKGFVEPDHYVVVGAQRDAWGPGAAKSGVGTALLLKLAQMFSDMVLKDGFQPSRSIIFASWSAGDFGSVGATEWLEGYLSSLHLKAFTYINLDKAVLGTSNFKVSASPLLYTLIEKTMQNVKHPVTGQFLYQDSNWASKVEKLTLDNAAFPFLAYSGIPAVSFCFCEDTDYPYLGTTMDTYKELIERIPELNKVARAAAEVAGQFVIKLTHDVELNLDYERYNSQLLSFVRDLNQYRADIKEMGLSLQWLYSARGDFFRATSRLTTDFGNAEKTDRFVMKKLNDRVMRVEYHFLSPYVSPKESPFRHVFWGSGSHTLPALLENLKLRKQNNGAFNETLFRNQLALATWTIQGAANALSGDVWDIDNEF
The experiment in a line: ELISA on immobilized chimeric TfR.

Another experiment concerns the target T7, chimeric TfR A07 (human/mouse chimera, UniProt P02786 89-760).
T7 construct: also called M365L-V366E-E369Q
Nature of the experiment: ELISA on immobilized chimeric TfR.

The target of a further experiment is T8, chimeric TfR A14 (human/mouse chimera, UniProt P02786 89-760).
T8 construct: also called D204Q-K205S-E369Q
The experiment in a line: ELISA on immobilized chimeric TfR.

Experiment [7] deals with T9, huTfR with mouse apical domain (human/mouse chimera, UniProt P02786 89-760).
T9 construct: His tag added; also called chimeric protein of human TfR extracellular domain with mouse apical domain
T9 chain: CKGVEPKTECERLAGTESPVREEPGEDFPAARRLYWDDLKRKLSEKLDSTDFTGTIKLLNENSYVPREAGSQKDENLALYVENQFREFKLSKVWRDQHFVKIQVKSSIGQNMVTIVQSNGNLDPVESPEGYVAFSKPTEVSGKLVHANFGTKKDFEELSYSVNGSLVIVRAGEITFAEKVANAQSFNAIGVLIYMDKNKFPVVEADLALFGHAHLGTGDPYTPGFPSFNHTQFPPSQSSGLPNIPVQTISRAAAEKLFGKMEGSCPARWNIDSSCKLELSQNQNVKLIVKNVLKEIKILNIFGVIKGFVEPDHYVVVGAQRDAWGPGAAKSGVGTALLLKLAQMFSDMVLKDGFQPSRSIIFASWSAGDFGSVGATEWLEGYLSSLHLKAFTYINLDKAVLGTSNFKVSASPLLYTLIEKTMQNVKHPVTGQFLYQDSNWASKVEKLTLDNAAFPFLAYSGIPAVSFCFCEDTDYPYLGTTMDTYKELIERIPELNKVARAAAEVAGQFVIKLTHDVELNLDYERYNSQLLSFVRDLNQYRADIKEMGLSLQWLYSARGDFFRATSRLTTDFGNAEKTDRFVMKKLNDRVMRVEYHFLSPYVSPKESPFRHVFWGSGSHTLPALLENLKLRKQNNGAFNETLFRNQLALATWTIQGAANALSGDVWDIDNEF
Nature of the experiment: ELISA on immobilized chimeric TfR.
Protocol: (§3) ELISA was carried out by the following method. To a 96-well immunoplate (NUNC, Inc.) on which an antigen protein was immobilized, 1% (w/v) BSA-PBS(−) pH 7.0 without KCl (hereinafter referred to as blocking solution, Nacalai Tesque, Inc.) was added to perform blocking at room temperature, and thereafter, the anti-TfR antibody diluted with the same solution was added thereto and a reaction was allowed to proceed at room temperature for 1 hour. Thereafter, washing was performed with 0.05% (w/v)-tPBS (1×) without KCl (pH 7.2) (hereinafter referred to as washing solution, Nacalai Tesque, Inc.), Anti-Human IgG (Fc) Goat IgG Fab″-HRP (IBL, Inc.) diluted with the blocking solution was added thereto, and a reaction was allowed to proceed at room temperature for 1 hour. Thereafter, washing was performed with the washing solution, and 1-Step (registered trademark) Ultra TMB-ELISA Substrate Solution (Thermo, Inc.) was added thereto, and a reaction was allowed to proceed at room temperature. The coloring reaction was stopped by adding a 5 N HCl solution, and an absorbance at a wavelength of 450 nm (reference wavelength: 570 nm) was measured using a plate reader (EPOCH 2: BioTek Instruments, Inc.).
(§4) Further, a value obtained by subtracting the absorbance at the reference wavelength of 570 nm from the absorbance at a wavelength of 450 nm was regarded as the binding activity to any of various types of antigen proteins, and a case where a value obtained by dividing the binding activity to any of various types of chimeric TfR by the binding activity to His-huTfR was 0.5 or more was denoted by ++, a case where the value was 0.2 or more and less than 0.5 was denoted by +, and a case where the value was less than 0.2 was denoted by −.

The target in another experiment is T10, chimeric TfR A03 (human/mouse chimera, UniProt P02786 89-760).
T10 construct: also called D245E-K261E
Nature of the experiment: ELISA on immobilized chimeric TfR; grade = binding relative to His-huTfR (++ 0.5 or more, + 0.2 to less than 0.5).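 Further: Anti-TfR antibodies incubated 1 h at room temperature on plate-coated antigen, bound antibody detected via HRP-labelled anti-human IgG Fc with TMB substrate.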

For the next experiment, the target named is T11, chimeric TfR A05 (human/mouse chimera, UniProt P02786 89-760).
T11 construct: also called P249S-L274F
Described as above.

Experiment [8] concerns the target T12, huTfR with mouse protease-like domain (human/mouse chimera).
T12 construct: His tag added; also called chimeric protein of human TfR extracellular domain with mouse protease-like domain
T12 chain: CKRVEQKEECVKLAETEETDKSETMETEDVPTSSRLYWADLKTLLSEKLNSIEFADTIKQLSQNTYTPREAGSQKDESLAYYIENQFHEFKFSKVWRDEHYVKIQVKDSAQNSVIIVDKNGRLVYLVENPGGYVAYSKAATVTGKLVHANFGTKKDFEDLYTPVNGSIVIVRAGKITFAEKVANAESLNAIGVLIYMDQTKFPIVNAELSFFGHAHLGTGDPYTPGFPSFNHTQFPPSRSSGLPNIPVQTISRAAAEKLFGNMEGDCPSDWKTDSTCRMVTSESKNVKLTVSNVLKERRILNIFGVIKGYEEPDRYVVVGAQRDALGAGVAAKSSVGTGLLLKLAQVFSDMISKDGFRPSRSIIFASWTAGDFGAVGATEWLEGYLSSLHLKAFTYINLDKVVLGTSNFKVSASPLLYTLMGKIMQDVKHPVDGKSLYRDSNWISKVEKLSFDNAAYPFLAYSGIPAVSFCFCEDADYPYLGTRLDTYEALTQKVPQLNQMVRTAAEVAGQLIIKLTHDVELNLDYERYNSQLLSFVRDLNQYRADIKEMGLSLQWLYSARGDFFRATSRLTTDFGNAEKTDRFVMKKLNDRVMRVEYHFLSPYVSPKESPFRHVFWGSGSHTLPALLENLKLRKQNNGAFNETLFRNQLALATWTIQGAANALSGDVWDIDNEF
The description is as above.
Protocol: as §3, §4

The target in another experiment is T13, chimeric TfR A04 (human/mouse chimera, UniProt P02786 89-760).
T13 construct: also called D245E-K261E-D356R
The experiment is described as above.

Protocol for chimeric TfR A02: as §3, §4
Protocol for chimeric TfR A03: as §3, §4
Protocol for chimeric TfR A04: as §3, §4
Protocol for chimeric TfR A05: as §3, §4
Protocol for chimeric TfR A07: as §3, §4
Protocol for chimeric TfR A14: as §3, §4
Protocol for monkey EGFR-FLAG-Fc: as §1, §2
Protocol for monkey TfR on CHO cells: After the reaction was allowed to proceed under 4° C. for 30 minutes, each well was washed 3 times with PBS-T.
Protocol for mouse TfR on CHO cells: Subsequently, an epitope analysis for various types of TfR antibodies was carried out.

B1: E12 (antibody, V domains shown)
VH: QVQLVESGGGLVQPGGSLRLSCAASRFTFSAYAMGWVRQAPGKGLEWVSIIDSGGVYTYYADSMKGRFTISRDNSKNTLYLQMNSLRAEDTAVYYCARDHYGVVWGLGDYWGQGTLVTVSS
VL: not shown
notes: also called anti-EGFR antibody E12; Clone E12
In the case of B1, the binding result with human EGFR on cells [1], with human EGFR-FLAG-Fc [2] and in the experiment with monkey EGFR-FLAG-Fc was “binds” throughout.

B2: E17 (antibody, V domains shown)
VH: QVQLQQWGAGLLKPSETLSLTCALYSGSFSAQDWSWIRQSPEKGLEWIGEIWQGGKTNYNPSLKSRVSISRDNSKNQLSLQLSSVTAADTAVYYCARVDWSYRVFEIWGQGTMVTVSS
VL: not shown
notes: also called anti-EGFR antibody E17
Take B2: the binding result in the experiment with human EGFR on cells [3], in the experiment with human EGFR-FLAG-Fc [2] and in the experiment with monkey EGFR-FLAG-Fc was “binds” each time.

B3: KME07 (antibody, V domains shown)
VH: QVQLVQSGAEVKKPGSSVKVSCKASGGTFSSFAFGWVRQAPGQGLEWMGEVRPGFGTEILTQNFQDRVTITADESTSTTYMELRSLKSEDTAVYYCARGLLRGGYIENPFEIWGQGTLVTVSS
VL: DIQMTQSPSSLSASVGDRVTITCRASQGISSWLAWYQQKPEKAPKSLIYAASSLQSGVPSRFSGSGSGTDFTLTISSLQPEDFATYFCQQYYNYPYTFGQGTKLEIK
notes: IgG4PE or IgG4PE R409K; also called anti-EGFR antibody KME07
Regarding B3, the binding result with human EGFR on cells [4] was “binds”.

B4: KME11 (antibody, V domains shown)
VH: QVQLVQSGAEVKKPGSSVKVSCKASGGTLSTYGITWVRQAPGQGFAWMGEIIPSLGIVNYAQKFQGRVTITADESTSTVYMELSSVTYEDTAVYYCAGDELSEGHSEYYHGMDVWGQGTTVTVSS
VL: B3 VL
notes: IgG4PE or IgG4PE R409K; also called anti-EGFR antibody KME11; KME1l
In the case of B4, in the experiment with human EGFR-FLAG-Fc [5], the binding result is “binds”.

B5: E08 (antibody, V domains shown)
VH: EVQLVESGGGLVQPGGSLRLSCAASGFSFNNNAMNWVRQAPGKGLEWVSGIRADGGTTYYADSVKGRFTISRDNSKNTLYLQMNSLRAEDTAVYFCGKTPDWEIFYYAMDAWGQGTTVTVSS
VL: not shown
notes: also called anti-EGFR antibody E08; Clone E08
On to B5, for which the binding result with human EGFR-FLAG-Fc [2], in the experiment with human EGFR on cells [6] and in the experiment with monkey EGFR-FLAG-Fc was “binds” in each case.

B6: cyno186 (antibody, V domains shown)
VH: QVQLVESGGEFVQPGGSLRLSCAASGFPFKGYAMNWVRQAPGKGLEWVSRISNGGSYIDYADSVKGRFTISRDNSKNTLYLQIDSLRTEDTAVYYCAKAKDAYRWNNAIDEWGQGTLVTVSS
VL: not shown
notes: also called anti-TfR antibody cyno186
Consider B6, for which the binding result is on record as “no binding” with mouse TfR on CHO cells and “binds” with monkey TfR on CHO cells. In addition, the “ratio of ELISA binding activity (A450-A570) to chimeric TfR over that to His-huTfR” value is under 0.2 ratio in the experiment with chimeric TfR A02; under 0.2 ratio with chimeric TfR A07; under 0.2 ratio with chimeric TfR A14; under 0.2 ratio in experiment [7]; at least 0.5 ratio with chimeric TfR A03; at least 0.5 ratio in the experiment with chimeric TfR A05. Moreover, the results for the “ratio of ELISA binding activity (A450-A570) to chimeric TfR over that to His-huTfR” value (in [8]; in the experiment with chimeric TfR A04) were at least 0.5 ratio and 0.2 to 0.5 ratio, respectively.
